Columns and labels:
Test in all cases: flow cytometry on transfected cells, IgG
human CD33 F43V (human) = human CD33 F43V (human) (UniProt P20138)
human CD33 F44D (human) = human CD33 F44D (human) (UniProt P20138)
human CD33 F44E (human) = human CD33 F44E (human) (UniProt P20138)
human CD33 F44H (human) = human CD33 F44H (human) (UniProt P20138)
human CD33 F44I (human) = human CD33 F44I (human) (UniProt P20138)
human CD33 F44L (human) = human CD33 F44L (human) (UniProt P20138)
human CD33 F44P (human) = human CD33 F44P (human) (UniProt P20138)
human CD33 F44S (human) = human CD33 F44S (human) (UniProt P20138)
human CD33 I47F (human) = human CD33 I47F (human) (UniProt P20138)
human CD33 I47G (human) = human CD33 I47G (human) (UniProt P20138)
human CD33 I47N (human) = human CD33 I47N (human) (UniProt P20138)
human CD33 I47P (human) = human CD33 I47P (human) (UniProt P20138)
human CD33 I47S (human) = human CD33 I47S (human) (UniProt P20138)
human CD33 I47T (human) = human CD33 I47T (human) (UniProt P20138)
human CD33 I47W (human) = human CD33 I47W (human) (UniProt P20138)
human CD33 I47Y (human) = human CD33 I47Y (human) (UniProt P20138)
human CD33 P46H (human) = human CD33 P46H (human) (UniProt P20138)
human CD33 P46I (human) = human CD33 P46I (human) (UniProt P20138)
human CD33 P46L (human) = human CD33 P46L (human) (UniProt P20138)
human CD33 P46R (human) = human CD33 P46R (human) (UniProt P20138)
human CD33 P48D (human) = human CD33 P48D (human) (UniProt P20138)
human CD33 P48F (human) = human CD33 P48F (human) (UniProt P20138)
human CD33 P48G (human) = human CD33 P48G (human) (UniProt P20138)
human CD33 P48H (human) = human CD33 P48H (human) (UniProt P20138)
human CD33 P48I (human) = human CD33 P48I (human) (UniProt P20138)
human CD33 P48K (human) = human CD33 P48K (human) (UniProt P20138)
human CD33 P48L (human) = human CD33 P48L (human) (UniProt P20138)
human CD33 P48M (human) = human CD33 P48M (human) (UniProt P20138)
human CD33 P48N (human) = human CD33 P48N (human) (UniProt P20138)
human CD33 P48Q (human) = human CD33 P48Q (human) (UniProt P20138)
human CD33 P48S (human) = human CD33 P48S (human) (UniProt P20138)
human CD33 P48V (human) = human CD33 P48V (human) (UniProt P20138)
human CD33 P48Y (human) = human CD33 P48Y (human) (UniProt P20138)
human CD33 T42N (human) = human CD33 T42N (human) (UniProt P20138)
human CD33 Y49C (human) = human CD33 Y49C (human) (UniProt P20138)
human CD33 Y49D (human) = human CD33 Y49D (human) (UniProt P20138)
human CD33 Y49H (human) = human CD33 Y49H (human) (UniProt P20138)
human CD33 Y49L (human) = human CD33 Y49L (human) (UniProt P20138)
human CD33 Y49R (human) = human CD33 Y49R (human) (UniProt P20138)
human CD33 Y49S (human) = human CD33 Y49S (human) (UniProt P20138)
human CD33 Y50D (human) = human CD33 Y50D (human) (UniProt P20138)
human CD33 Y50G (human) = human CD33 Y50G (human) (UniProt P20138)
human CD33 Y50H (human) = human CD33 Y50H (human) (UniProt P20138)
human CD33 Y50I (human) = human CD33 Y50I (human) (UniProt P20138)
human CD33 Y50L (human) = human CD33 Y50L (human) (UniProt P20138)
human CD33 Y50N (human) = human CD33 Y50N (human) (UniProt P20138)
human CD33 Y50V (human) = human CD33 Y50V (human) (UniProt P20138)

human CD33 F44H (human), sequence (P20138 18-364 F44H limits assumed): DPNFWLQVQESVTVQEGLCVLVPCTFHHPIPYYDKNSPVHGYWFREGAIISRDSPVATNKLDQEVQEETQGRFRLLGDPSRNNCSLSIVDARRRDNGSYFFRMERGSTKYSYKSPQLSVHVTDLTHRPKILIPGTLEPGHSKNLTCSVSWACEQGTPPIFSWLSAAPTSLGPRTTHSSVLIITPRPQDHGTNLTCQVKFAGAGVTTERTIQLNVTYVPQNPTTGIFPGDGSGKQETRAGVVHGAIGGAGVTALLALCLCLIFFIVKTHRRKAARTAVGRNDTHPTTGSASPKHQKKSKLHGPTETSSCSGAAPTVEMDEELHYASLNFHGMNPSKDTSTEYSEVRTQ
human CD33 F44P (human), sequence (P20138 18-364 F44P limits assumed): as the sequence (P20138 18-364 F44H limits assumed) above, with H27P counted along it
human CD33 F44I (human), sequence (P20138 18-364 F44I limits assumed): as the sequence (P20138 18-364 F44H limits assumed) above, with H27I counted along it
human CD33 I47T (human), sequence (P20138 18-364 I47T limits assumed): as the sequence (P20138 18-364 F44H limits assumed) above, with H27F, I30T counted along it
human CD33 I47N (human), sequence (P20138 18-364 I47N limits assumed): as the sequence (P20138 18-364 F44H limits assumed) above, with H27F, I30N counted along it
human CD33 Y50D (human), sequence (P20138 18-364 Y50D limits assumed): as the sequence (P20138 18-364 F44H limits assumed) above, with H27F, Y33D counted along it
human CD33 P48F (human), sequence (P20138 18-364 P48F limits assumed): as the sequence (P20138 18-364 F44H limits assumed) above, with H27F, P31F counted along it
human CD33 Y50L (human), sequence (P20138 18-364 Y50L limits assumed): as the sequence (P20138 18-364 F44H limits assumed) above, with H27F, Y33L counted along it
human CD33 P48Y (human), sequence (P20138 18-364 P48Y limits assumed): as the sequence (P20138 18-364 F44H limits assumed) above, with H27F, P31Y counted along it
human CD33 I47W (human), sequence (P20138 18-364 I47W limits assumed): as the sequence (P20138 18-364 F44H limits assumed) above, with H27F, I30W counted along it
human CD33 Y50I (human), sequence (P20138 18-364 Y50I limits assumed): as the sequence (P20138 18-364 F44H limits assumed) above, with H27F, Y33I counted along it
human CD33 I47S (human), sequence (P20138 18-364 I47S limits assumed): as the sequence (P20138 18-364 F44H limits assumed) above, with H27F, I30S counted along it
human CD33 Y49R (human), sequence (P20138 18-364 Y49R limits assumed): as the sequence (P20138 18-364 F44H limits assumed) above, with H27F, Y32R counted along it
human CD33 P48K (human), sequence (P20138 18-364 P48K limits assumed): as the sequence (P20138 18-364 F44H limits assumed) above, with H27F, P31K counted along it

Refmab #7 (WM53) (antibody)
Mean % WT Binding (human CD33 F43V (human)): 73.4 % WT binding | Mean % WT Binding (human CD33 F44D (human)): 9.5 % WT binding | Mean % WT Binding (human CD33 F44E (human)): 18.3 % WT binding | Mean % WT Binding (human CD33 F44H (human)): 82.4 % WT binding | Mean % WT Binding (human CD33 F44I (human)): 46.1 % WT binding | Mean % WT Binding (human CD33 F44L (human)): 99.6 % WT binding | Mean % WT Binding (human CD33 F44P (human)): 21.8 % WT binding | Mean % WT Binding (human CD33 F44S (human)): 31.8 % WT binding | Mean % WT Binding (human CD33 I47F (human)): 85.2 % WT binding | Mean % WT Binding (human CD33 I47G (human)): 15.1 % WT binding | Mean % WT Binding (human CD33 I47N (human)): 4.7 % WT binding | Mean % WT Binding (human CD33 I47P (human)): 1.2 % WT binding | Mean % WT Binding (human CD33 I47S (human)): 33.6 % WT binding | Mean % WT Binding (human CD33 I47T (human)): 32.7 % WT binding | Mean % WT Binding (human CD33 I47W (human)): 45.4 % WT binding | Mean % WT Binding (human CD33 I47Y (human)): 79.6 % WT binding | Mean % WT Binding (human CD33 P46H (human)): 94.3 % WT binding | Mean % WT Binding (human CD33 P46I (human)): 107 % WT binding | Mean % WT Binding (human CD33 P46L (human)): 66.8 % WT binding | Mean % WT Binding (human CD33 P46R (human)): 33.4 % WT binding | Mean % WT Binding (human CD33 P48D (human)): 0.1 % WT binding | Mean % WT Binding (human CD33 P48F (human)): 0.2 % WT binding | Mean % WT Binding (human CD33 P48G (human)): 13.3 % WT binding | Mean % WT Binding (human CD33 P48H (human)): 1.6 % WT binding | Mean % WT Binding (human CD33 P48I (human)): 0.1 % WT binding | Mean % WT Binding (human CD33 P48K (human)): 1.6 % WT binding | Mean % WT Binding (human CD33 P48L (human)): 0.3 % WT binding | Mean % WT Binding (human CD33 P48M (human)): 3.2 % WT binding | Mean % WT Binding (human CD33 P48N (human)): 4.3 % WT binding | Mean % WT Binding (human CD33 P48Q (human)): 1.3 % WT binding | Mean % WT Binding (human CD33 P48S (human)): 2.6 % WT binding | Mean % WT Binding (human CD33 P48V (human)): 0.9 % WT binding | Mean % WT Binding (human CD33 P48Y (human)): 0.5 % WT binding | Mean % WT Binding (human CD33 T42N (human)): 95.4 % WT binding | Mean % WT Binding (human CD33 Y49C (human)): 0.6 % WT binding | Mean % WT Binding (human CD33 Y49D (human)): 3.9 % WT binding | Mean % WT Binding (human CD33 Y49H (human)): 27.8 % WT binding | Mean % WT Binding (human CD33 Y49L (human)): 1.6 % WT binding | Mean % WT Binding (human CD33 Y49R (human)): 1.6 % WT binding | Mean % WT Binding (human CD33 Y49S (human)): 3.6 % WT binding | Mean % WT Binding (human CD33 Y50D (human)): 1.2 % WT binding | Mean % WT Binding (human CD33 Y50G (human)): 17.2 % WT binding | Mean % WT Binding (human CD33 Y50H (human)): 18 % WT binding | Mean % WT Binding (human CD33 Y50I (human)): 5.1 % WT binding | Mean % WT Binding (human CD33 Y50L (human)): 4.7 % WT binding | Mean % WT Binding (human CD33 Y50N (human)): 4.7 % WT binding | Mean % WT Binding (human CD33 Y50V (human)): 3.9 % WT binding

From patent US20260242735A1
